Here are results for two variants from IntAct's records for PubMed 31254514.

B1: Beta-crystallin A4 (Homo sapiens), P53673 (parent)
chain: MTLQCTKSAGPWKMVVWDEDGFQGRRHEFTAECPSVLELGFETVRSLKVLSGAWVGFEHAGFQGQQYILERGEYPSWDAWGGNTAYPAERLTSFRPAACANHRDSRLTIFEQENFLGKKGELSDDYPSLQAMGWEGNEVGSFHVHSGAWVCSQFPGYRGFQYVLECDHHSGDYKHFREWGSHAPTFQVQSIRRIQQ
partner: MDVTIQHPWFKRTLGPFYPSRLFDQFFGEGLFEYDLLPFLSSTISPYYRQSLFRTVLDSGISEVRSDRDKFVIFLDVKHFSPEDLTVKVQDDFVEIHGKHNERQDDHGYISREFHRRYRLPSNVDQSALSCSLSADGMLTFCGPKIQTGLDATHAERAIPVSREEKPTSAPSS
B2: Beta-crystallin A4 (Homo sapiens), P53673 (parent)
chain: B1 chain
partner: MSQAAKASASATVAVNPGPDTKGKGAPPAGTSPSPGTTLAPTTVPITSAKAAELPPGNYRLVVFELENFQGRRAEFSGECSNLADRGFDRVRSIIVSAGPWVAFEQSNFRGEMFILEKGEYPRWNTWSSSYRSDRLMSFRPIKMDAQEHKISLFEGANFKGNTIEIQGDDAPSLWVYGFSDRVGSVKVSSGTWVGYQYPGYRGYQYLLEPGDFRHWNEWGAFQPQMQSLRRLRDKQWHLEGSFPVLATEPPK

The variants in one test derive from B1. To be noted: with cryaa_human CRYAA.
In the case of G64W, the “effect of a mutation on the interaction” value is on record as “increasing interaction strength”.

A further test covers variants of B2. As to conditions: with crbb1_human CRYBB1, P53674.
Consider G64W, for which the “effect of a mutation on the interaction” value was “disrupting interaction strength”.
